Source: patent EP4814014A1, “BINDING MOLECULE AND ANTIBODY-DRUG CONJUGATE AND USE THEREOF” (priority 2023, dated 2025)
Residue numbers refer to the chain shown, from its start. Numbers in names are those of the source.

Key:
human EGFR on cells [1] = molecular target: T1, human EGFR on cells (human, UniProt P00533 25-1210); assay: FACS, VHH-His on CHOK1-huEGFR cells
T1 construct: whole, on cells; the cell line is named under assay; also called CHO-S-EGFR; CHOK1-huEGFR

human EGFR on cells [2] = molecular target: T1, human EGFR on cells; assay: FACS, VHH-His on MDA-MB-468 cells
human cMet on cells = molecular target: T2, human cMet on cells (human, UniProt P08581 25-1390); assay: FACS, VHH-His on MKN45 cells
T2 construct: whole, on cells; Cell lines: CHO-S-cMet, CHOK1-hucMet, EBC-1, MKN45, NCI-H1975; the cell line is named under assay; also called CHO-S-cMet; CHOK1-hucMet

[3] = molecular target: T3, human EGFR-his (ECD, Met1-Ser645) (human, UniProt P00533 25-645); assay: SPR, antigen amine-coupled on GLM chip, antibody injected, 1:1 model
T3 construct: range 1-645; Bought; range as printed includes Met1

[4] = molecular target: T4, cynomolgus monkey EGFR-his (ECD, Met1-Ser645) (cynomolgus monkey, UniProt A0A2K5WK39 1-645); assay: as above
T4 construct: range 1-645; Bought; range as printed includes Met1

[5] = molecular target: T5, cynomolgus monkey cMet-his (ECD, Met1-Thr932) (cynomolgus monkey, UniProt A0A2K5UM36 25-932); assay: as above
T5 construct: Bought; range as printed includes Met1

[6] = molecular target: T6, human cMet-his (ECD, Met1-Thr932) (human, UniProt P08581 25-932); assay: as above
T6 construct: Bought; range as printed includes Met1
T6 sequence (P08581 25-932): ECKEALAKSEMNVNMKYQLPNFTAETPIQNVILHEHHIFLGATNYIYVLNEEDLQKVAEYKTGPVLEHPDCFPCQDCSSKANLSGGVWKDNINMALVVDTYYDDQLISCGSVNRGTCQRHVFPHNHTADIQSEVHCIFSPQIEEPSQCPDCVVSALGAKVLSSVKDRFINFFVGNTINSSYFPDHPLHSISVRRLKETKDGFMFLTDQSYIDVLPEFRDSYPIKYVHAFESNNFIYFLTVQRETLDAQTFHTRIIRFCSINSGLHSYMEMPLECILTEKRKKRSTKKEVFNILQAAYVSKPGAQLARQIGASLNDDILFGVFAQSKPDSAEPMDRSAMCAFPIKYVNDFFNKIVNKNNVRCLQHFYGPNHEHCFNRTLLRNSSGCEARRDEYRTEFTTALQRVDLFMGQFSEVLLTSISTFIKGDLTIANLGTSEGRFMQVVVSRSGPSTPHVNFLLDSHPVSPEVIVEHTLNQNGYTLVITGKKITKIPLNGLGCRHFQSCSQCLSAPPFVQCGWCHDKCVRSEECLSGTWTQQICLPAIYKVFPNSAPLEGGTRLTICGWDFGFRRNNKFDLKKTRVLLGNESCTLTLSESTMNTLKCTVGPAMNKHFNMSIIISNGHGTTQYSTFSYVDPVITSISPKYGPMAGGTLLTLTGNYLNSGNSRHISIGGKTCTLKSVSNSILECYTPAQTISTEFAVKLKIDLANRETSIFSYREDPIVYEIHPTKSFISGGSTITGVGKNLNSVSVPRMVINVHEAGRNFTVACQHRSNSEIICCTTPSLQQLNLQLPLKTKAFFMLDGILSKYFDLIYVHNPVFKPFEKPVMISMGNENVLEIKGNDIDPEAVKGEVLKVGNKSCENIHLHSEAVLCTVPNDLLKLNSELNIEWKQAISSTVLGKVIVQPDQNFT

T2 sequence (P08581 25-1390): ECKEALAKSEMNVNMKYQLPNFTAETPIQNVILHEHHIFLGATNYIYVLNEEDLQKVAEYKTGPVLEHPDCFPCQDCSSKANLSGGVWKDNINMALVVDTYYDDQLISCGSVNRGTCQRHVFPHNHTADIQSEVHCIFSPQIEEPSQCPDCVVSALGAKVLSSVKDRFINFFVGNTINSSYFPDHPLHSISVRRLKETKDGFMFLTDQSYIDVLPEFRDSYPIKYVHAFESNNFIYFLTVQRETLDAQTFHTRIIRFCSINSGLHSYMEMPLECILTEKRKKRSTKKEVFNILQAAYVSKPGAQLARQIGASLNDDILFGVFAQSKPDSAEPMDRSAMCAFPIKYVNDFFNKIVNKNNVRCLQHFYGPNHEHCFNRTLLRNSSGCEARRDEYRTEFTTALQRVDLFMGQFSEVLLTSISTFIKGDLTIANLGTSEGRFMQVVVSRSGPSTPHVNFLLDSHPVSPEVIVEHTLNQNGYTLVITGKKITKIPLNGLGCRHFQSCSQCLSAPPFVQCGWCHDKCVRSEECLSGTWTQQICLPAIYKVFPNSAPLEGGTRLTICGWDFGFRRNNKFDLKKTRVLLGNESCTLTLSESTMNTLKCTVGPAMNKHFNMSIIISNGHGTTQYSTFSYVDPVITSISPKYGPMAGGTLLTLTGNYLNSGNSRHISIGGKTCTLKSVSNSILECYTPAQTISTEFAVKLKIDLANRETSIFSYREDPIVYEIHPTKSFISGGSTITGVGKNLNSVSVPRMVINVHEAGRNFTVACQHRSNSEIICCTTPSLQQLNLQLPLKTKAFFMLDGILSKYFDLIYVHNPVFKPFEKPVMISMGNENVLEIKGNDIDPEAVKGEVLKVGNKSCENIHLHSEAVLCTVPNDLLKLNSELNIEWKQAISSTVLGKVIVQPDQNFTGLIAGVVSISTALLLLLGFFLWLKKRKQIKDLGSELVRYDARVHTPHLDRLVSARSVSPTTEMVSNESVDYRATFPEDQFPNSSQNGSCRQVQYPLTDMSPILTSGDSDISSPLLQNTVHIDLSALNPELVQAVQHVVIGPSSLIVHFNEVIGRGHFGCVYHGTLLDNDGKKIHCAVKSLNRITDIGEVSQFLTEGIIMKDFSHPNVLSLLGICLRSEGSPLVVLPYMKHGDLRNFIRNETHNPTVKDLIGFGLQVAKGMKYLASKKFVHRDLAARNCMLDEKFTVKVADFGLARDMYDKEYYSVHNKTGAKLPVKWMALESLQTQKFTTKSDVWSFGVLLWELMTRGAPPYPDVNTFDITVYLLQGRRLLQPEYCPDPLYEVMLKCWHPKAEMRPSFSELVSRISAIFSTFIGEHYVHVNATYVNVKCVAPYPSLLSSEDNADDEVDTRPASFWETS
T5 sequence (A0A2K5UM36 entry or part of it limits assumed, form in doubt): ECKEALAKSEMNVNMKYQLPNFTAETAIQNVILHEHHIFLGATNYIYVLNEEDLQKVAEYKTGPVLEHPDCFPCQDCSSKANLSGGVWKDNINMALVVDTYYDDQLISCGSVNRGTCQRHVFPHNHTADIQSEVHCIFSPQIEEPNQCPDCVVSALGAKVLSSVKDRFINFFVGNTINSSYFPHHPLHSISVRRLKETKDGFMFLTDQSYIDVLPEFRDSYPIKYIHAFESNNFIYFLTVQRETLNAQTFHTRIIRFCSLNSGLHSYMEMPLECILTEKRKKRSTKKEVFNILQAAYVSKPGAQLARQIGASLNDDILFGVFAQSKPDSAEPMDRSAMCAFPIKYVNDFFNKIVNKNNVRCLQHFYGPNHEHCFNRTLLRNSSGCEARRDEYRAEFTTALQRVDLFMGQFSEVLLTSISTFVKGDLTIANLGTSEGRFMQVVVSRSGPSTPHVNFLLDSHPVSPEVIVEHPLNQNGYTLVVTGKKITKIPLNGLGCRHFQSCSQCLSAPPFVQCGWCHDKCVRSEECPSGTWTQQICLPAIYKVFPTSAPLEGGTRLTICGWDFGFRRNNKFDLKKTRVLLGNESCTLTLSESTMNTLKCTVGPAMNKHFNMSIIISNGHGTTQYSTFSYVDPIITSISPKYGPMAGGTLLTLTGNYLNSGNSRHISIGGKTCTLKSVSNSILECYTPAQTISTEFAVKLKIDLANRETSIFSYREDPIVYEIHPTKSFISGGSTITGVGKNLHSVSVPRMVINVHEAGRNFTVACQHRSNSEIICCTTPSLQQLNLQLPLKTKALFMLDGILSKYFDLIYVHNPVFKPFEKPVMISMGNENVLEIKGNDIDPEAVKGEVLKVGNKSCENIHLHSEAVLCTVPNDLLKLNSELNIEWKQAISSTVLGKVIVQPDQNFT

B1: zn9B8.m2 (VHH, not shown: small tags and cut ends)
VHH: EVQLLESGGGLVQPGGSLRLSCAASGLTFSYYAMAWFRQAPGKEREFVAAINWNGGNTYNTDSVKGRFTISRDNSKNTVYLQMNSLTPEDTAVYYCAVRYNSASYLVARSSDYNYWGQGTLVTVSS
notes: Humanized anti-EGFR VHH-His
- EC50 (human EGFR on cells [1]): 3.94 nM
- Maximum MFI value (human EGFR on cells [1]): 84300 MFI
- EC50 (human EGFR on cells [2]): 2.49 nM
- Maximum MFI value (human EGFR on cells [2]): 95800 MFI

B2: pzn9B8.m2.m12 (VHH, not shown: small tags and cut ends)
VHH: B1 VHH with G55A, S102A
notes: Humanized + PTM-removal anti-EGFR VHH-His
- EC50 (human EGFR on cells [1]): 4.96 nM
- Maximum MFI value (human EGFR on cells [1]): 85700 MFI

B3: pzn9B8.m2.m11 (VHH, not shown: small tags and cut ends)
VHH: B1 VHH with G55Q, S102Q
notes: Humanized + PTM-removal anti-EGFR VHH-His; also called hu9B8
- EC50 (human EGFR on cells [1]): 3.39 nM
- Maximum MFI value (human EGFR on cells [1]): 80100 MFI

B4: pn7A12.N32X.m1 (VHH, not shown: small tags and cut ends)
VHH: EVQLVESGGGLVQAGGSLRLSCVASGNIFSSYHMGWFRQAPGKQREFIAYITTREITNYADSVKGRFTISRDNTKNTVYLQMNVLKPEDTAVYYCIADQSREIRRSWGQGTQVTVSS
notes: PTM-removal anti-cMet VHH-His
- EC50 (human cMet on cells): 5.1 nM
- Maximum MFI value (human cMet on cells): 40400 MFI

B5: pn7A12.N32X.m3 (VHH, not shown: small tags and cut ends)
VHH: B4 VHH with Y32H
notes: PTM-removal anti-cMet VHH-His
- EC50 (human cMet on cells): 4.16 nM
- Maximum MFI value (human cMet on cells): 49600 MFI

B6: pn7A12.N32X.m4 (VHH, not shown: small tags and cut ends)
VHH: B4 VHH with Y32F
notes: PTM-removal anti-cMet VHH-His
- EC50 (human cMet on cells): 4.96 nM
- Maximum MFI value (human cMet on cells): 38000 MFI

B7: V-13 (10A1-9A2-7A12) (bispecific antibody)
chain: QVQLVESGGGLVQAGGSLRLSCAASGRTGSLHAMGWFRQAPGKERERVATLNLSDGSAVTADSVKGRFTISTDNTKNSVYLQMNSLKPEDTAVYYCTASRSPSGIRYYKPDYWGQGTQVTVSSGGGGSQSQLAESGGGLVQSGGSLGLSCVASGFTISRSIMSWYRQPPGKERDWVASIGSAGNTNYVDSVKGRFTISRDVAKNTVYLQMNSLKPEDTAVYYCKTTLAVSFSEYWGQGTQVTVSSGGGGSGGGGSEVQLVESGGGLVQAGGSLRLSCVASGNIFSSNHMGWFRQAPGKQREFIAYITTREITNYADSVKGRFTISRDNTKNTVYLQMNVLKPEDTAVYYCIADQSREIRRSWGQGTQVTVSS
notes: Single-chain trispecific anti-EGFR/cMet antibody
- Kd [3]: 48.9 nM
- koff [3]: 0.0135 s⁻¹
- kon [3]: 276000 M⁻¹ s⁻¹
- Kd [4]: 37.4 nM
- koff [4]: 0.0162 s⁻¹
- kon [4]: 433000 M⁻¹ s⁻¹
- Kd [5]: 1.91 nM
- koff [5]: 0.000381 s⁻¹
- kon [5]: 200000 M⁻¹ s⁻¹
- Kd [6]: 2.72 nM
- koff [6]: 0.000825 s⁻¹
- kon [6]: 304000 M⁻¹ s⁻¹

B8: pzn10A1_m6m5 (VHH, not shown: small tags and cut ends)
VHH: QVQLVESGGGLVQPGGSLRLSCAASGRTGSLHAMGWFRQAPGKERERVATLNLSDVSAVTADSVKGRFTISTDNSKNSVYLQMNSLRAEDTAVYYCTASRSPSGIRYYKPDYWGQGTLVTVSS
- Maximum MFI value (human EGFR on cells [1]): 3570 MFI

B9: ppzn10A1_m6m5.m1 (VHH, not shown: small tags and cut ends)
VHH: B8 VHH with N52R
- Maximum MFI value (human EGFR on cells [1]): 2470 MFI

B10: ppzn10A1_m6m5.m3 (VHH, not shown: small tags and cut ends)
VHH: B8 VHH with N52Q
- Maximum MFI value (human EGFR on cells [1]): 4770 MFI

B11: V-15 (10A1-7A12-9A2) (bispecific antibody)
chain: QVQLVESGGGLVQAGGSLRLSCAASGRTGSLHAMGWFRQAPGKERERVATLNLSDGSAVTADSVKGRFTISTDNTKNSVYLQMNSLKPEDTAVYYCTASRSPSGIRYYKPDYWGQGTQVTVSSGGGGSEVQLVESGGGLVQAGGSLRLSCVASGNIFSSNHMGWFRQAPGKQREFIAYITTREITNYADSVKGRFTISRDNTKNTVYLQMNVLKPEDTAVYYCIADQSREIRRSWGQGTQVTVSSGGGGSGGGGSQSQLAESGGGLVQSGGSLGLSCVASGFTISRSIMSWYRQPPGKERDWVASIGSAGNTNYVDSVKGRFTISRDVAKNTVYLQMNSLKPEDTAVYYCKTTLAVSFSEYWGQGTQVTVSS
notes: as for B7
- Kd [3]: 28.3 nM
- koff [3]: 0.00943 s⁻¹
- kon [3]: 334000 M⁻¹ s⁻¹
- Kd [4]: 22.8 nM
- koff [4]: 0.00764 s⁻¹
- kon [4]: 335000 M⁻¹ s⁻¹
- Kd [5]: 4.49 nM
- koff [5]: 0.000831 s⁻¹
- kon [5]: 185000 M⁻¹ s⁻¹
- Kd [6]: 6.61 nM
- koff [6]: 0.00125 s⁻¹
- kon [6]: 189000 M⁻¹ s⁻¹
